# Where no end group is shown, it is not given here.
# B1: bLN11Q8-10 (peptide)
# peptide: LLTLPSVQEQN
# modifications: also: biotin tag, position not given here
# B2: bFE5Q4 (peptide)
# peptide: FWIQE
# modifications: also: biotin tag, position not given here
# B3: bSY8Q6 (peptide)
# peptide: SPLKHQEY
# modifications: also: biotin tag, position not given here
# B4: BEST1 (peptide)
# peptide: YEIQR
# modifications: also: biotinylated, position not given here
# B5: bPH6Q4 (peptide)
# peptide: PLVQSH
# modifications: also: biotin tag, position not given here
# B6: BEST2 (peptide)
# peptide: YEAQK
# modifications: also: biotinylated, position not given here
# B7: BEST3 (peptide)
# peptide: YEAQR
# modifications: also: biotinylated, position not given here
# B8: BEST4 (peptide)
# peptide: WPAQR
# modifications: also: biotinylated, position not given here
# B9: bHH12Q11 (peptide)
# peptide: HDLMWPDVYSQH
# modifications: also: biotin tag, position not given here
# B10: bWH8Q7 (peptide)
# peptide: WPDVYSQH
# modifications: also: biotin tag, position not given here
# B11: bDH6Q5 (peptide)
# peptide: DVYSQH
# modifications: also: biotin tag, position not given here
# Target: T1, Recombinant microbial transglutaminase (mTG) (Streptoverticillium mobaraense, UniProt P81453 77-407)
# T1 sequence (looked up): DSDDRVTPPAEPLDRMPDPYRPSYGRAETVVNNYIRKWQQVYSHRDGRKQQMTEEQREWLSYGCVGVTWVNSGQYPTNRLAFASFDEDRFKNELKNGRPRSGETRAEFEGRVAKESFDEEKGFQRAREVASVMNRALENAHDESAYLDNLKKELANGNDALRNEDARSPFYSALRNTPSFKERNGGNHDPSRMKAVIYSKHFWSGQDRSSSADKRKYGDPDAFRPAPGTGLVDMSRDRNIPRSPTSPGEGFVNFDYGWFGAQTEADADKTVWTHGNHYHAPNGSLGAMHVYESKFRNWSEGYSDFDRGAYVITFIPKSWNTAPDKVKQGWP
# Assay: cell-based or functional assay
row,Binder,Kmapp [µM]
1,B1,172
2,B2,5
3,B3,> 50
4,B4,0.086
5,B5,14.8
6,B6,0.114
7,B7,0.08
8,B8,0.225
9,B9,3.08
10,B10,11.4
11,B11,33.1
